# Literature values, collected in US11147882B2, “Method for preserving and stabilizing proteins for formulations of sanitary, pharmaceutical and cosmetic products” (SANI-RED, S.L., priority 2013, dated 2021).
substance,measurement,setting,value
"EGF: epidermal growth factor, first polypeptide isolated and characterized as a growth factor; rhEGF is the recombinant human form",half-life of rhEGF at 25° C.,"25° C., based on the Arrhenius equation (Yang et al. 2005)",6.93 h
same,half-life at 37 C,"37 °C, pH 7.2",3.47 h
same,"half-life (mean life, useful life) of EGF","EGF normally, published studies",7 h
